Data as given in patent US20140302055A1.

B1: anti-ANGPTL4 monoclonal antibody 1.3.1 (antibody, part only; not given: light chain, human IgG2, V domains shown, part only)
VH: EVQLVESGGGLIQPGGSLRLSCAASGFTVSTNYMSWVRQAPGKGLDWVSIIYSDDNTYYADSVKGRFTISRDNSKNTLYLQMNSLRAEDSAVYYCAGTGTTDYYYGLDVWGLGTTVTVSSA
B2: anti-ANGPTL4 monoclonal antibody 1.10.2 (antibody, human IgG2, V domains shown)
VH: QVQLVQSGAEVKKPGASVKDSCKASGFTFTSYGISWVRQAPGQGLEWMGWISAYNGNKNYAQKLQGRVTMTTDTSTSTAYMELRSLRSDDTAVYYCARDDCSRASCSYYYGMDVWGQGTAVTVSS
VL: DIVMTQTPLSLAVTPGQPASISCKSSQSLLHSDRKTYLYWYLQKPGQPPQLLIYEVSNRFSGVPDRFSGSGSGTDFTLKISRVEAEDVGVYYCMQSIQLPWTFGQGTKVEIKR
B3: anti-ANGPTL4 monoclonal antibody 1.7.3 (antibody, human IgG2, V domains shown)
VH: QVQLVESGGGVVQPGRSLRLSCAASGFTFSSYGIHWIRQAPGKGLEWVAVIWYDGSHKYYADSVKGRFTISRDNSKNTLYLQMNSLRAEDTAVYYCARDGITMVRGVLYYFYGMDVWGQGTTVTVSS
VL: DIQMTQSPSSLSASVGDRVTITCRASQGISNYLAWYQQKPGKVPKLLIYAASTLQSGVPSRFSGSGSGTDFTLTISSLQPEDFATYYCQEFNSAPLTFGGGTKVEIKR

Tests used:
[1] = target: Angiopoietin-like protein 4 (ANGPTL4), recombinant V5-his tagged secreted product (UniProt Q9BY76); experiment: SPR (BiaCore) low resolution, mAb captured on goat anti-human surface, ANGPTL4 at 292 nM, 25 C
[2] = target: Angiopoietin-like protein 4 (ANGPTL4), recombinant V5-his tagged secreted product (UniProt Q9BY76); experiment: SPR (BiaCore 2000) medium resolution, mAb captured on goat anti-human surface, ANGPTL4 6-198 nM (593 nM left out of the fit), 1:1 model with mass transport

Row | Binder | Kd [1] [nM] | koff [1] [s⁻¹] | kon [1] [M⁻¹ s⁻¹] | Kd [2] [nM] | koff [2] [s⁻¹] | kon [2] [M⁻¹ s⁻¹]
1 | B1 | 15 | 0.00071 | 49000 |  |  | 
2 | B2 | 11 | 0.00068 | 63000 |  |  | 
3 | B3 | 16 | 0.0011 | 67000 | 7.9 | 0.000786 | 99800
